Experimental data published in the supplement of paper PMC9112550, “Optimization of the antimicrobial peptide Bac7 by deep mutational scanning” (BMC Biology, 2022).

Test system: Escherichia coli TOP10
Assay: shrunken log2 fold change of peptide-encoding DNA abundance (4.5 h post-induction vs induction); higher = less antimicrobial activity (less host growth inhibition)
Conditions: time post-induction: 4.5 h; library: site-saturation at positions 5, 18, 19, 20
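Also: peptides expressed intracellularly from a pBAD plasmid library in pooled LB shake-flask culture, induced with 0.3% L-arabinose, DNA abundance read by NGS, three biological replicates, DESeq2 with apeglm shrinkage.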

Sequence	shrunken log2 fold change
RRIRNRPPRLPRPRPRPMIIPRP	0.0546
RRIRFRPPRLPRPRPRPWMEPRP	-0.706
RRIRHRPPRLPRPRPRPKLQPRP	0.0439
RRIRLRPPRLPRPRPRPGNIPRP	-0.0276
RRIRVRPPRLPRPRPRPEVMPRP	0.344
RRIRVRPPRLPRPRPRPGPKPRP	0.254
RRIRNRPPRLPRPRPRPAHPPRP	0.307
RRIRRRPPRLPRPRPRPNQTPRP	0.0193
RRIRCRPPRLPRPRPRPQCVPRP	-0.0975
RRIRKRPPRLPRPRPRPDNRPRP	0.00592
RRIRSRPPRLPRPRPRPNDKPRP	-0.553
RRIRTRPPRLPRPRPRPFWNPRP	-0.104
RRIRYRPPRLPRPRPRPAVMPRP	-0.231
RRIRWRPPRLPRPRPRPEMYPRP	0.144
RRIRKRPPRLPRPRPRPTNYPRP	-0.114
RRIRARPPRLPRPRPRPIVQPRP	0.0602
RRIRCRPPRLPRPRPRPSIEPRP	-0.123
RRIRLRPPRLPRPRPRPRYKPRP	-0.225
RRIRVRPPRLPRPRPRPLEWPRP	-0.0248
RRIRLRPPRLPRPRPRPMKCPRP	0.131
RRIRHRPPRLPRPRPRPPGIPRP	0.142
RRIRSRPPRLPRPRPRPTRVPRP	0.872
RRIRHRPPRLPRPRPRPEWHPRP	0.0223
RRIRSRPPRLPRPRPRPGEYPRP	-0.275
RRIRKRPPRLPRPRPRPKSAPRP	0.656

Sequence	shrunken log2 fold change
RRIRTRPPRLPRPRPRPRDQPRP	0.224
RRIRLRPPRLPRPRPRPGRCPRP	0.341
RRIRARPPRLPRPRPRPAYNPRP	0.0748
RRIRRRPPRLPRPRPRPHGCPRP	0.000335
RRIRDRPPRLPRPRPRPWSAPRP	-0.347
RRIRYRPPRLPRPRPRPKKTPRP	-0.0419
RRIRNRPPRLPRPRPRPNPRPRP	0.286
RRIRPRPPRLPRPRPRPSAWPRP	0.368
RRIRSRPPRLPRPRPRPYPEPRP	-0.355
RRIRLRPPRLPRPRPRPGPTPRP	0.109
RRIRCRPPRLPRPRPRPNKVPRP	-0.142
RRIRNRPPRLPRPRPRPAGHPRP	0.133
RRIRWRPPRLPRPRPRPKLNPRP	0.318
RRIRWRPPRLPRPRPRPSNRPRP	-0.174
RRIRHRPPRLPRPRPRPGLEPRP	0.00016
RRIRSRPPRLPRPRPRPVNYPRP	-0.0921
RRIRARPPRLPRPRPRPTIIPRP	-0.0837
RRIRPRPPRLPRPRPRPKCGPRP	0.574
RRIRLRPPRLPRPRPRPNLFPRP	-0.0622
RRIRMRPPRLPRPRPRPVTVPRP	0.0436
RRIRDRPPRLPRPRPRPFDQPRP	-0.115
RRIRPRPPRLPRPRPRPMCDPRP	0.164
RRIRYRPPRLPRPRPRPLDCPRP	-0.068
RRIRCRPPRLPRPRPRPRPTPRP	0.808
RRIRNRPPRLPRPRPRPLIVPRP	-0.332

Sequence	shrunken log2 fold change
RRIRGRPPRLPRPRPRPDFGPRP	0.0741
RRIRERPPRLPRPRPRPWDNPRP	-0.021
RRIRTRPPRLPRPRPRPMDGPRP	-0.123
RRIRERPPRLPRPRPRPPVKPRP	0.0254
RRIRGRPPRLPRPRPRPRASPRP	1.05
RRIRIRPPRLPRPRPRPLRQPRP	0.335
RRIRSRPPRLPRPRPRPRMVPRP	0.174
RRIRNRPPRLPRPRPRPRTVPRP	-0.403
RRIRYRPPRLPRPRPRPEPSPRP	-0.0733
RRIRNRPPRLPRPRPRPPRWPRP	0.147
RRIRNRPPRLPRPRPRPYCQPRP	-0.358
RRIRFRPPRLPRPRPRPHWSPRP	-0.54
RRIRGRPPRLPRPRPRPFKYPRP	-0.221
RRIRNRPPRLPRPRPRPHVRPRP	-0.12
RRIRIRPPRLPRPRPRPESNPRP	0.0344
RRIRMRPPRLPRPRPRPRIWPRP	0.726
RRIRGRPPRLPRPRPRPMWFPRP	0.185
RRIRLRPPRLPRPRPRPQNTPRP	-0.42
RRIRGRPPRLPRPRPRPFCQPRP	0.0716
RRIRTRPPRLPRPRPRPWFSPRP	-0.152
RRIRDRPPRLPRPRPRPEDEPRP	1.76
RRIRQRPPRLPRPRPRPWYVPRP	-0.0198
RRIRCRPPRLPRPRPRPNQQPRP	0.00277
RRIRSRPPRLPRPRPRPVEGPRP	-0.00141
RRIRIRPPRLPRPRPRPWNNPRP	-0.89

Sequence	shrunken log2 fold change
RRIRLRPPRLPRPRPRPKEWPRP	0.157
RRIRVRPPRLPRPRPRPVMSPRP	-0.213
RRIRLRPPRLPRPRPRPLEQPRP	0.0155
RRIRARPPRLPRPRPRPMQLPRP	0.206
RRIRNRPPRLPRPRPRPKVIPRP	-0.264
RRIRTRPPRLPRPRPRPKCLPRP	-0.0528
RRIRSRPPRLPRPRPRPRMRPRP	0.91
RRIRWRPPRLPRPRPRPYKMPRP	0.0642
RRIRVRPPRLPRPRPRPYFLPRP	-0.149
RRIRARPPRLPRPRPRPSWPPRP	0.164
RRIRSRPPRLPRPRPRPKLKPRP	0.149
RRIRARPPRLPRPRPRPIPQPRP	-0.0224
RRIRSRPPRLPRPRPRPTMWPRP	0.214
RRIRVRPPRLPRPRPRPRYSPRP	-0.911
RRIRSRPPRLPRPRPRPPGMPRP	-0.0105
RRIRSRPPRLPRPRPRPTYYPRP	-0.42
RRIRGRPPRLPRPRPRPEFSPRP	1.15
RRIRIRPPRLPRPRPRPCAKPRP	0.0416
RRIRIRPPRLPRPRPRPSWGPRP	-0.0874
RRIRHRPPRLPRPRPRPVYVPRP	-0.158
RRIRRRPPRLPRPRPRPTTKPRP	0.0527
RRIRKRPPRLPRPRPRPHKMPRP	0.105
RRIRMRPPRLPRPRPRPCFRPRP	0.123
RRIRVRPPRLPRPRPRPEEAPRP	0.26
RRIRGRPPRLPRPRPRPEYAPRP	1.26

Sequence	shrunken log2 fold change
RRIRDRPPRLPRPRPRPSLVPRP	-0.0908
RRIRNRPPRLPRPRPRPCWVPRP	-0.0518
RRIRFRPPRLPRPRPRPWNAPRP	-0.84
RRIRGRPPRLPRPRPRPDPYPRP	-0.0305
RRIRKRPPRLPRPRPRPISSPRP	-0.0713
RRIRCRPPRLPRPRPRPGDHPRP	-0.583
RRIRWRPPRLPRPRPRPMKKPRP	-0.0863
RRIRLRPPRLPRPRPRPKRCPRP	-0.0395
RRIRCRPPRLPRPRPRPMECPRP	-0.00088
RRIRGRPPRLPRPRPRPVHWPRP	0.601
RRIRPRPPRLPRPRPRPKGTPRP	0.0309
RRIRSRPPRLPRPRPRPKQFPRP	0.26
RRIRARPPRLPRPRPRPEIRPRP	0.132
RRIRPRPPRLPRPRPRPDYQPRP	-0.211
RRIRCRPPRLPRPRPRPFRRPRP	-0.237
RRIRSRPPRLPRPRPRPQFGPRP	0.0239
RRIRERPPRLPRPRPRPYCYPRP	-0.979
RRIRGRPPRLPRPRPRPIFWPRP	0.531
RRIRMRPPRLPRPRPRPTYGPRP	-0.00932
RRIRPRPPRLPRPRPRPDQNPRP	-0.065
RRIRMRPPRLPRPRPRPYLYPRP	-0.0828
RRIRLRPPRLPRPRPRPVCLPRP	-0.0821
RRIRYRPPRLPRPRPRPEQPPRP	0.00487
RRIRGRPPRLPRPRPRPGWLPRP	1.17
RRIRKRPPRLPRPRPRPWQRPRP	-0.0202

Sequence	shrunken log2 fold change
RRIRTRPPRLPRPRPRPKKMPRP	0.0999
RRIRFRPPRLPRPRPRPKNIPRP	-0.485
RRIRTRPPRLPRPRPRPLDMPRP	-0.247
RRIRDRPPRLPRPRPRPDTCPRP	0.00173
RRIRERPPRLPRPRPRPQCNPRP	0.117
RRIRRRPPRLPRPRPRPFYRPRP	-0.0117
RRIRVRPPRLPRPRPRPGYCPRP	-0.307
RRIRGRPPRLPRPRPRPSKKPRP	0.609
RRIRQRPPRLPRPRPRPQLMPRP	-0.166
RRIRNRPPRLPRPRPRPNVFPRP	-0.43
RRIRERPPRLPRPRPRPPECPRP	0.0263
RRIRRRPPRLPRPRPRPFLTPRP	0.228
RRIRLRPPRLPRPRPRPGTPPRP	0.0973
RRIRRRPPRLPRPRPRPQDNPRP	-0.668
RRIRKRPPRLPRPRPRPLGWPRP	1.11
RRIRFRPPRLPRPRPRPWQAPRP	0.0155
RRIRCRPPRLPRPRPRPTRQPRP	0.503
RRIRPRPPRLPRPRPRPFWRPRP	0.0788
RRIRLRPPRLPRPRPRPAKFPRP	0.0249
RRIRWRPPRLPRPRPRPHFLPRP	1.46
RRIRARPPRLPRPRPRPPQMPRP	0.868
RRIRYRPPRLPRPRPRPPIVPRP	-0.756
RRIRARPPRLPRPRPRPRQKPRP	0.055
RRIRHRPPRLPRPRPRPVVQPRP	0.13
RRIRCRPPRLPRPRPRPFISPRP	-0.689
